Several values for one entry are separate records, joined by “and”; a condition that tells them apart may be missing. Identical values can stand only once.
Assays:
Assay in all cases: Cytokine-stimulated phosphorylation in immunophenotypically defined cell populations from healthy donor BM (flow cytometry);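 for pAKT S/N ratio: Phosphoprotein MFI normalized to lymphocyte MFI as internal negative control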;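 for pERK S/N ratio: Phosphoprotein MFI normalized to lymphocyte MFI as internal negative control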;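 for pS6 S/N ratio: Phosphoprotein MFI normalized to lymphocyte MFI as internal negative control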;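 for pSTAT3 S/N ratio: Phosphoprotein MFI normalized to lymphocyte MFI as internal negative control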
Type in all cases: cell-based, human
pAKT = details: for pAKT Percent (%) Responding Cells, Mean / pAKT S/N ratio: healthy donor BM, mean ± SD
Method: (§1) Bone marrow (BM) samples were collected in 7.5 mL Iscove's modified Dulbecco's medium (IMDM) supplemented with 100U penicillin, 0.01 mg/mL streptomycin, and 70 μg/mL heparin sodium salt from 10 patients undergoing hip replacement surgery, who were otherwise healthy. These patients were from a pool of surgery patients, age 49 to 77, and represented […] patients. […] These BM samples were rinsed twice with IMDM to release cells, filtered using a 100 μm Nylon cell strainer to remove marrow particles, and centrifuged for at RT fro 7 minutes at 200 g. The cell pellet was washed twice with sterile IMDM to remove traces of fat and re-suspended in IMDM to a concentration of 3×10^7 cells/mL.
(§2) To assess the signal transduction response after growth factor simulation, a series comprising two sets of tubes including about 3×10^6 cells/100 μL were incubated at 37° C. for 30 minutes. After this pre-incubation period, tubes with then processes with either a stimulant or inhibitor. […] To examine the effects of protein phosphorylation inhibition, tubes were incubated with an inhibitor cocktail comprising 100 μM/100 μL UO126, 1 μM/100 μL LY294002, and 1 μM/100 μL rapamycin. One unstimulated tube receiving no stimulant or inhibitor was processed to assess basal levels of phospho-protein expression. After stimulation the cells were immediately fixed in 10% formaldehyde solution at 37° C. Pre-labeling with CD13, CD16 and CD64 antibodies was carried out 20 minutes prior to formaldehyde fixation. After fixation, one set of tubes was permeabilized without methanol for pAKT, pERK and pS6 staining and the other for 80% methanol permeabilized for pSTAT3 and pSTAT5 staining. After permeablization, the cells were washed in PBS with 2% BSA and blocked by re-suspended in 75 μL of PBS comprising 25% heat inactivated normal mouse serum, 25% normal rabbit serum. To stain cells with fluorescent conjugated monoclonal antibodies, samples were incubated on ice for 45 minutes in 100 μL of an antibody staining solution including either: 1) CD15-Pacific Orange, CD34-Phycoerythrin-Texas Red, CD117-Phycoerythrin-Cyanin 5.5, CD45-Allophycocyanin-Alexa Fluor 750 (or CD45-Pacific Orange, in which case CD15-Pacific Orange was omitted), pS6-Pacific Blue, pERK-Alexa Fluor 488 and pAKT-Alexa Fluor 647 or 2) CD15-Pacific Orange, CD34-Phycoerythrin-Texas Red, CD117-Phycoerythrin-Cyanin 5.5, CD45-Allophycocyanin-Alexa Fluor 750 or CD45-Pacific Blue, pSTAT3-Alexa Fluor 488 and pSTAT5-Phycoerythrin. The stained cells were washed twice with ice cold PBS containing 2% BSA and centrifuged at 800 g for 6 minutes at 4° C. The supernatant was discarded and cells re-suspended in 250 μL of chilled wash buffer for data acquisition. Stained cells were examined using either GALIOS flow cytometer (Beckman Coulter) or CYAN ADP (Beckman Coulter) equipped with 488 nm, 405 nm and 635 nm lasers to detect the degree of fluorescence. Data were analyzed using FCS Express (De Novo Software, CA) analysis software.
(§3) Specific phosphoprotein expression of pERK, pS6, pAKT, pSTAT5, and pSTAT3 was examined in seven discrete phenotypically defined populations based on 7-color immunophenotyping (FIG. 1). The percent of responding (phosphorprotein positive) cells for each of these populations was determined from individual single parameter histograms based on a fixed integration region set on the inhibitor treated control at about 3% positives.

pERK = details: for pERK Percent (%) Responding Cells, Mean / pERK S/N ratio: healthy donor BM, mean ± SD
Method: as §1, §2, §3

pS6 = details: healthy donor BM, mean ± SD
Method: as §1, §2, §3

pSTAT3 = details: healthy donor BM, mean ± SD
Method: as §1, §2, §3

pSTAT5 = details: healthy donor BM, mean ± SD
Method: as §1, §2, §3

B1: FMS-Like Tyrosine Kinase 3 (FLT-3) ligand (protein, UniProt P49771 27-235, looked up)
Fms-related tyrosine kinase 3 …: TQDCSFQHSPISSDFAVKIRELSDYLLQDYPVTVASNLQDEELCGGLWRLVLAQRWMERLKTVAGSKMQGLLERVNTEIHFVTKCAFQPPPSCLRFVQTNISRLLQETSEQLVALKPWITRQNFSRCLELQCQPDSSTLPPPWSPRPLEATAPTAPQPPLLLLLLLPVGLLLLAAAWCLHWQRTRRRTPRPGEQVPPVPSPQDLLLVEH
pAKT Percent (%) Responding Cells, Mean (pAKT; CD34^+ (CD34^+/CD117^+ cells)): 34.3% and 34.3 ± 19.4%
pAKT S/N ratio (pAKT; CD34^+ (CD34^+/CD117^+ cells)): 7.2 ± 4.9
pAKT Percent (%) Responding Cells, Mean (pAKT; CD117^+ (CD34^−/CD117^+ cells)): 20.5 ± 28.3%
pAKT S/N ratio (pAKT; CD117^+ (CD34^−/CD117^+ cells)): 2.8 ± 2.9
pAKT Percent (%) Responding Cells, Mean (pAKT; G1, immature myeloid cells): 3.0 ± 4.3%
pAKT S/N ratio (pAKT; G1, immature myeloid cells): 2.3 ± 1.1
pAKT Percent (%) Responding Cells, Mean (pAKT; G2, intermediate myeloid cells): 3.6 ± 5.0%
pAKT S/N ratio (pAKT; G2, intermediate myeloid cells): 2.4 ± 1.0
pAKT Percent (%) Responding Cells, Mean (pAKT; G3, mature myeloid cells): 3.8 ± 2.5%
pAKT S/N ratio (pAKT; G3, mature myeloid cells): 2.7 ± 1.3
pAKT Percent (%) Responding Cells, Mean (pAKT; Mono, monocytes): 21.5% and 21.5 ± 23.8%
pAKT S/N ratio (pAKT; Mono, monocytes): 4.2 ± 3.0
pAKT, Normal Sample (pAKT; Table 7 comparison value): 76.9
pERK Percent (%) Responding Cells, Mean (pERK; CD34^+ (CD34^+/CD117^+ cells)): 76.9% and 76.9 ± 11.0%
pERK S/N ratio (pERK; CD34^+ (CD34^+/CD117^+ cells)): 11.9 ± 3.6
pERK Percent (%) Responding Cells, Mean (pERK; CD117^+ (CD34^−/CD117^+ cells)): 37.1 ± 8.8%
pERK S/N ratio (pERK; CD117^+ (CD34^−/CD117^+ cells)): 10.9 ± 2.9
pERK Percent (%) Responding Cells, Mean (pERK; G1, immature myeloid cells): 3.3 ± 5.4%
pERK S/N ratio (pERK; G1, immature myeloid cells): 2.9 ± 0.7
pERK Percent (%) Responding Cells, Mean (pERK; G2, intermediate myeloid cells): 6.3 ± 11.2%
pERK S/N ratio (pERK; G2, intermediate myeloid cells): 2.8 ± 0.6
pERK Percent (%) Responding Cells, Mean (pERK; G3, mature myeloid cells): 9.1 ± 15.6%
pERK S/N ratio (pERK; G3, mature myeloid cells): 3.6 ± 1.3
pERK S/N ratio (pERK; Mono, monocytes): 12.8 and 12.8 ± 6.7
pERK, Normal Sample (pERK; Table 7 comparison value, matches percent responding CD34^+ cells of Tables 1-5): 76.9
pS6 Percent (%) Responding Cells, Mean (pS6; CD34^+ (CD34^+/CD117^+ cells)): 68.8% and 68.8 ± 21.1%
pS6 S/N ratio (pS6; CD34^+ (CD34^+/CD117^+ cells)): 31.1 ± 26.0
pS6 Percent (%) Responding Cells, Mean (pS6; CD117^+ (CD34^−/CD117^+ cells)): 36.1 ± 16.4%
pS6 S/N ratio (pS6; CD117^+ (CD34^−/CD117^+ cells)): 44.4 ± 44.4
pS6 Percent (%) Responding Cells, Mean (pS6; G1, immature myeloid cells): 2.1 ± 1.5%
pS6 S/N ratio (pS6; G1, immature myeloid cells): 3.3 ± 1.9
pS6 Percent (%) Responding Cells, Mean (pS6; G2, intermediate myeloid cells): 2.5 ± 1.9%
pS6 S/N ratio (pS6; G2, intermediate myeloid cells): 2.9 ± 1.8
pS6 Percent (%) Responding Cells, Mean (pS6; G3, mature myeloid cells): 3.9 ± 2.7%
pS6 S/N ratio (pS6; G3, mature myeloid cells): 3.6 ± 2.3
pS6 S/N ratio (pS6; Mono, monocytes): 33.4 and 33.4 ± 30.5
pSTAT3 Percent (%) Responding Cells, Mean (pSTAT3; CD34^+ (CD34^+/CD117^+ cells)): 13.5 ± 9.4%
pSTAT3 S/N ratio (pSTAT3; CD34^+ (CD34^+/CD117^+ cells)): 3.5 ± 3.3
pSTAT3 Percent (%) Responding Cells, Mean (pSTAT3; CD117^+ (CD34^−/CD117^+ cells)): 3.5 ± 2.2%
pSTAT3 S/N ratio (pSTAT3; CD117^+ (CD34^−/CD117^+ cells)): 2.6 ± 0.6
pSTAT3 Percent (%) Responding Cells, Mean (pSTAT3; G1, immature myeloid cells): 2.7 ± 3.3%
pSTAT3 S/N ratio (pSTAT3; G1, immature myeloid cells): 3.4 ± 0.4
pSTAT3 Percent (%) Responding Cells, Mean (pSTAT3; G2, intermediate myeloid cells): 1.8 ± 1.4%
pSTAT3 S/N ratio (pSTAT3; G2, intermediate myeloid cells): 3.3 ± 0.6
pSTAT3 Percent (%) Responding Cells, Mean (pSTAT3; G3, mature myeloid cells): 5.3 ± 5.6%
pSTAT3 S/N ratio (pSTAT3; G3, mature myeloid cells): 3.7 ± 0.5
pSTAT3 Percent (%) Responding Cells, Mean (pSTAT3; Mono, monocytes): 4.8 ± 3.9%
pSTAT3 S/N ratio (pSTAT3; Mono, monocytes): 2.6 ± 0.4
pSTAT5 Percent (%) Responding Cells, Mean (pSTAT5; CD34^+ (CD34^+/CD117^+ cells)): 16.1 ± 6.1%
pSTAT5 S/N ratio (pSTAT5; CD34^+ (CD34^+/CD117^+ cells)): 1.9 ± 1.4
pSTAT5 Percent (%) Responding Cells, Mean (pSTAT5; CD117^+ (CD34^−/CD117^+ cells)): 5.7 ± 5.8%
pSTAT5 S/N ratio (pSTAT5; CD117^+ (CD34^−/CD117^+ cells)): 2.1 ± 0.6
pSTAT5 Percent (%) Responding Cells, Mean (pSTAT5; G1, immature myeloid cells): 2.7 ± 2.5%
pSTAT5 S/N ratio (pSTAT5; G1, immature myeloid cells): 2.6 ± 0.5
pSTAT5 Percent (%) Responding Cells, Mean (pSTAT5; G2, intermediate myeloid cells): 2.0 ± 1.6%
pSTAT5 S/N ratio (pSTAT5; G2, intermediate myeloid cells): 2.7 ± 0.5
pSTAT5 Percent (%) Responding Cells, Mean (pSTAT5; G3, mature myeloid cells): 3.1 ± 1.0%
pSTAT5 S/N ratio (pSTAT5; G3, mature myeloid cells): 3.2 ± 0.7
pSTAT5 Percent (%) Responding Cells, Mean (pSTAT5; Mono, monocytes): 3.1 ± 1.9%
pSTAT5 S/N ratio (pSTAT5; Mono, monocytes): 3.9 ± 4.9

Source: patent US20130210034A1, “COMPLEX PHOSPHOPROTEIN ACTIVATION PROFILES” (BECKMAN COULTER, INC., priority 2005, published 2013)
